Measurements reported in the supplement of paper PMC7877785.
± gives the uncertainty stated by the source.

Test: self-splicing fitness, log relative to wild type (ln ratio); higher = more splicing; Tetrahymena group I intron in knt gene, E. coli kanamycin selection, DiMSum; sequences stand for … in CUCUCU…GGAGGGAAAAGUUAUCAGGCAUGCACCUGGUAGCUAGUCUUUAAACCAAUAGAUUGCAUCGGUUUAAAAGGCAAGACCGUCAAAUUGCGGGAAAGGGGUCAACAGCCGUUCAGUACCAAGUCUCAGGGGAAACUUUGAGAUGGCCUUGCAAAGGGUAUGGUAAUAAGCUGACGGACAUGGUCCUAACCACGCAGCCAAGUCCUAAGUCAACAGAUCUUCUGUUGAUAUGGAUGCAGUUCACAGACUAAAUGUCGGUCGGGGAAGAUGUAUUCUUCUCAUAAGAUAUAGUCGGACCUCUCCUUAAUGGGAGCUAGCGGAUGAAGUGAUGCAACACUGGAGCCGCUGGGAACUAAUUUGUAUGCGAAAGUAUAUUGAUUAGUUUUGGAGUACUCGUGGUCG
Method in brief: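 Six replicate transformations of E. coli BL21(DE3) with a pET-22b(+) library were grown overnight at 37°C or 30°C. The library randomised all eight P1ex-region intron nucleotides, the intron lying in the knt kanamycin-resistance gene, and plates were LB agar with or without 25 μg/mL kanamycin plus 100 μg/mL carbenicillin, 50 μM IPTG and 0.2% rhamnose. Pooled colonies were amplicon-sequenced on an Illumina HiSeq 2500, and fitness is the DiMSum error-weighted combination of wild-type-normalised replicate fold changes, kanamycin versus none.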

Row | Sequence | self-splicing fitness (ln) (37 °C) | self-splicing fitness (ln) (30 °C)
1 | UUCUAGCAAUAUUACGGCAC | -0.626 ± 0.23 | –
2 | UUCUAGCAAUAUUACGGCCC | – | -1.62 ± 0.41
3 | UUCUAGCAAUAUUACGGCGC | -2.7 ± 0.24 | -2.84 ± 0.25
4 | UUCUAGCAAUAUUACGGCUC | -0.913 ± 0.2 | -1.38 ± 0.14
5 | UUCUAGCAAUAUUACGGGAG | -1.47 ± 0.19 | -2.34 ± 0.19
6 | UUCUAGCAAUAUUACGGUUC | -2.44 ± 0.27 | -2.74 ± 0.26
7 | UUCUAGCAAUAUUACGUAGA | -2.19 ± 0.25 | -3.73 ± 0.29
8 | UUCUAGCAAUAUUACGUGAU | -1.34 ± 0.21 | -1.89 ± 0.18
9 | UUGAAGCAAUAUUACGAAGA | -0.181 ± 0.17 | -0.989 ± 0.11
10 | UUGAAGCAAUAUUACGAAUU | -1.3 ± 0.31 | -2.73 ± 0.33
11 | UUGAAGCAAUAUUACGAGCU | -1.02 ± 0.19 | -1.76 ± 0.16
12 | UUGAAGCAAUAUUACGAGGC | -1.84 ± 0.47 | -3.28 ± 0.39
13 | UUGAAGCAAUAUUACGAUGA | 0.161 ± 0.099 | 0.15 ± 0.075
14 | UUGAAGCAAUAUUACGAUUA | -0.455 ± 0.096 | 0.283 ± 0.096
15 | UUGAAGCAAUAUUACGCAGC | -1.05 ± 0.34 | -3.74 ± 0.3
16 | UUGAAGCAAUAUUACGGAUG | 0.219 ± 0.12 | 0.196 ± 0.1
17 | UUGAAGCAAUAUUACGGCAA | 0.402 ± 0.12 | 0.615 ± 0.092
18 | UUGAAGCAAUAUUACGGCAU | 1.08 ± 0.08 | -0.14 ± 0.06
19 | UUGAAGCAAUAUUACGGCCA | -0.046 ± 0.13 | 0.0822 ± 0.12
20 | UUGAAGCAAUAUUACGGCGA | 0.256 ± 0.12 | 0.203 ± 0.088
21 | UUGAAGCAAUAUUACGGCUG | 0.572 ± 0.12 | 0.342 ± 0.12
22 | UUGAAGCAAUAUUACGGGAU | -1 ± 0.14 | -2.63 ± 0.14
23 | UUGAAGCAAUAUUACGGGCA | 0.502 ± 0.13 | 0.114 ± 0.11
24 | UUGAAGCAAUAUUACGGGCU | -1.16 ± 0.1 | -3.02 ± 0.14
25 | UUGAAGCAAUAUUACGGGUG | -0.446 ± 0.066 | -0.54 ± 0.048

Row | Sequence | self-splicing fitness (ln) (37 °C) | self-splicing fitness (ln) (30 °C)
26 | UUGAAGCAAUAUUACGUCCG | 0.4 ± 0.12 | 0.0359 ± 0.093
27 | UUGAAGCAAUAUUACGUCUG | 0.84 ± 0.081 | 0.509 ± 0.059
28 | UUGAAGCAAUAUUACGUGCA | 0.447 ± 0.1 | -0.222 ± 0.068
29 | UUGAAGCAAUAUUACGUUCC | -2.79 ± 0.35 | –
30 | UUGCAGCAAUAUUACGAGUA | -1.42 ± 0.15 | -1.92 ± 0.16
31 | UUGCAGCAAUAUUACGAUAC | -1.74 ± 0.47 | –
32 | UUGCAGCAAUAUUACGCACC | – | -0.223 ± 0.47
33 | UUGCAGCAAUAUUACGCGCU | -0.656 ± 0.19 | -1.88 ± 0.18
34 | UUGCAGCAAUAUUACGCUUG | -1.97 ± 0.29 | -3.08 ± 0.27
35 | UUGCAGCAAUAUUACGGCAC | -0.741 ± 0.19 | -0.586 ± 0.17
36 | UUGCAGCAAUAUUACGGUCA | 0.556 ± 0.11 | 0.208 ± 0.12
37 | UUGCAGCAAUAUUACGGUUG | -2.04 ± 0.15 | -3.07 ± 0.15
38 | UUGCAGCAAUAUUACGGUUU | -0.603 ± 0.085 | -1.37 ± 0.085
39 | UUGCAGCAAUAUUACGUCCA | 0.00855 ± 0.088 | -0.493 ± 0.1
40 | UUGCAGCAAUAUUACGUCCU | -0.682 ± 0.18 | -0.816 ± 0.14
41 | UUGCAGCAAUAUUACGUCGU | -1.17 ± 0.2 | -1.8 ± 0.16
42 | UUGCAGCAAUAUUACGUCUA | -0.0705 ± 0.11 | -0.361 ± 0.11
43 | UUGCAGCAAUAUUACGUUGA | -1.24 ± 0.12 | -1.61 ± 0.12
44 | UUGGAGCAAUAUUACGAAAG | -2.08 ± 0.37 | -2.5 ± 0.33
45 | UUGGAGCAAUAUUACGACCU | -0.7 ± 0.38 | -2.97 ± 0.32
46 | UUGGAGCAAUAUUACGAGCA | -1.74 ± 0.31 | -3.18 ± 0.37
47 | UUGGAGCAAUAUUACGAGUG | -3.04 ± 0.24 | -4.05 ± 0.33
48 | UUGGAGCAAUAUUACGCGUU | -2.47 ± 0.34 | -2.97 ± 0.47
49 | UUGGAGCAAUAUUACGGACA | -1.91 ± 0.18 | -2.52 ± 0.49
